Reference: paper PMC3336217, “^111In-Labeled Cystine-Knot Peptides Based on the Agouti-Related Protein for Targeting Tumor Angiogenesis” (Journal of Biomedicine and Biotechnology, 2012)
Positions of bridges follow the written chain, without caps; N, C: chain ends. Residues, ends and D or L forms follow the SMILES beside them. *: point of attachment. DOTA = O=C(O)CN1CCN(CC(=O)O)CCN(CC(=O)*)CCN(CC(=O)O)CC1

Experiments:
in vivo = conditions: female, athymic nu/nu, mouse, iv, total radioactivity
Protocol: (§1) All animal studies were carried out in compliance with federal and local institutional rules for animal experimentation. Approximately, 10^7 U87MG cells were suspended in PBS and subcutaneously implanted in the left shoulders of female athymic nu/nu mice. Tumors were allowed to grow to a size of 0.5 cm (2-3 weeks) before imaging experiments were performed. For biodistribution studies, U87MG tumor-bearing mice (n = 3 for each group) were injected with ^111In-DOTA-AgRP-7C (0.259–0.37 MBq, […]) or ^111In-DOTA-AgRP-6E (0.296–0.444 MBq, 8–12 μCi) via the tail vein and sacrificed at different time points (0.5, 2, 24, and 48 h) after injection (p.i.). Tumor and normal tissues of interest were removed and weighed, and their radioactivity was measured with a γ-counter. Radioactivity uptake was expressed as the percent injected dose per gram of tissue (%ID/g). To test the in vivo αvβ3 integrin targeting specificity of the probe, U87MG tumor-bearing mice (n = 3 for each group) were injected via the tail vein with a mixture of ^111In-DOTA-AgRP-7C (0.259–0.37 MBq, 7–10 μCi) and 330 μg of c(RGDyK). The mice were sacrificed at 2 h p.i. and the biodistribution of the radiolabeled peptide was measured as above.
(§2) Quantitative data were expressed as mean ± SD. Means were compared using the Student t-test. A 95% confidence level was chosen to determine the significance between groups, with P values of less than 0.05 indicating significant differences.

[1] = system: nude mice bearing subcutaneous U87MG human glioblastoma xenografts; test: in vivo; conditions: female, athymic nu/nu, mouse, iv, 2 h
Protocol: as §1, §2

in vitro = in vitro ADME; conditions: mouse, serum
Protocol: Radiolabeled AgRP* peptides were incubated in 0.01 M PBS (pH 7.4) at 37°C for 24 h and monitored for degradation by HPLC. Stability was also tested by incubating 0.74 MBq (20 μCi) ^111In-DOTA-AgRP-7C or ^111In-DOTA-AgRP-6E in 400 μL of mouse serum at 37°C for 2 h. Afterward, the mixture was re-suspended in 0.5 mL of DMF containing 5 μL of Triton X-100 and centrifuged at 16,000 g for 2 min. The supernatant, which contained >95% of the starting radioactivity, was filtered using a 10 K NanoSep device (Pall Corporation, East Hills, NY, USA). Greater than 99% of the radioactive material passed through this filter. The samples were analyzed by radio-HPLC, and the percentage of intact peptide was determined by quantifying peaks corresponding to the intact peptide and to the degradation products.
Figure 1 Stability analysis of ^111In-DOTA-AgRP-7C (a) and (b), and ^111In-DOTA-AgRP-6E (c) and (d) in PBS and mouse serum. The two radiopeptides were incubated with PBS for 24 h at […], and mouse serum for 2 h at 37°C.

## CC(C)C[C@@H]1NC(=O)[C@@H]2CSSC[C@@H]3NC(=O)[C@H]([C@@H](C)O)NC(=O)[C@H](C)NC(=O)[C@H](C)NC(=O)[C@@H]4CCCN4C(=O)[C@H](CC(=O)O)NC(=O)[C@H](CSSC[C@H](NC(=O)CNC(=O)CN4CCN(CC(=O)O)CCN(CC(=O)O)CCN(CC(=O)O)CC4)C(=O)N[C@@H](C(C)C)C(=O)N[C@@H](CCCNC(=N)N)C(=O)N[C@@H](CC(C)C)C(=O)N[C@@H](Cc4c[nH]cn4)C(=O)N[C@@H](CCC(=O)O)C(=O)N[C@@H](CO)C(=O)N2)NC(=O)[C@H](CSSC[C@@H](C(=O)N[C@@H](CCCNC(=N)N)C(=O)O)NC(=O)[C@H](Cc2ccc(O)cc2)NC(=O)[C@@H]2CSSC[C@H](NC(=O)[C@H](Cc4ccc(O)cc4)NC3=O)C(=O)N[C@@H](Cc3ccc(O)cc3)C(=O)NCC(=O)N[C@@H](CCCNC(=N)N)C(=O)NCC(=O)N[C@@H](CC(=O)O)C(=O)N[C@@H](CC(N)=O)C(=O)N[C@@H](CC(=O)O)C(=O)N[C@@H](CC(C)C)C(=O)N[C@@H](CCCNC(=N)N)C(=O)N2)NC(=O)[C@@H]2CCCN2C(=O)[C@H](C(C)C)NC(=O)[C@H](CCC(N)=O)NC(=O)[C@H](CCC(N)=O)NC(=O)CNC1=O [111In-DOTA-AgRP-7C, metal not drawn] ({DOTA}-GCVRLHESCLGQQVPCCDPAATCYCYGRGDNDLRCYCR-OH; disulfide 2-17, 9-23, 16-37, 25-35)
In vivo; Blood uptake
  tissue uptake at 0.5 h: 0.68 ± 0.26 %ID/g
  tissue uptake at 2 h: 0.1 ± 0.02 %ID/g
  tissue uptake at 24 h: 0.01 %ID/g
  tissue uptake at 48 h: 0.01 %ID/g
In vivo; Bone uptake
  tissue uptake at 0.5 h: 1.41 ± 0.36 %ID/g
  tissue uptake at 2 h: 0.63 ± 0.05 %ID/g
  tissue uptake at 24 h: 0.39 ± 0.07 %ID/g
  tissue uptake at 48 h: 0.24 ± 0.05 %ID/g
In vivo; Brain uptake
  tissue uptake at 0.5 h: 0.04 ± 0.02 %ID/g
  tissue uptake at 2 h: 0.02 ± 0.01 %ID/g
  tissue uptake at 24 h: 0.01 %ID/g
  tissue uptake at 48 h: 0.01 ± 0.01 %ID/g
In vivo; Heart uptake
  tissue uptake at 0.5 h: 0.45 ± 0.16 %ID/g
  tissue uptake at 2 h: 0.12 ± 0.02 %ID/g
  tissue uptake at 24 h: 0.04 ± 0.01 %ID/g
  tissue uptake at 48 h: 0.03 %ID/g
In vivo; Intestine uptake
  tissue uptake at 0.5 h: 2.02 ± 0.71 %ID/g
  tissue uptake at 24 h: 0.29 ± 0.02 %ID/g
  tissue uptake at 48 h: 0.22 ± 0.03 %ID/g
In vivo; Kidneys uptake
  tissue uptake at 0.5 h: 33.9 ± 8.35 %ID/g
  tissue uptake at 2 h: 30.6 ± 4.62 %ID/g
  tissue uptake at 24 h: 19.1 ± 2.17 %ID/g
  tissue uptake at 48 h: 8.47 ± 0.04 %ID/g
In vivo; Liver uptake
  tissue uptake at 0.5 h: 0.8 ± 0.19 %ID/g
  tissue uptake at 24 h: 0.24 ± 0.03 %ID/g
  tissue uptake at 48 h: 0.19 ± 0.03 %ID/g
In vivo; Lung uptake
  tissue uptake at 0.5 h: 2.11 ± 0.65 %ID/g
  tissue uptake at 24 h: 0.26 ± 0.09 %ID/g
  tissue uptake at 48 h: 0.12 ± 0.02 %ID/g
In vivo; Muscle uptake
  tissue uptake at 0.5 h: 0.3 ± 0.13 %ID/g
  tissue uptake at 2 h: 0.06 ± 0.01 %ID/g
  tissue uptake at 24 h: 0.04 ± 0.01 %ID/g
  tissue uptake at 48 h: 0.02 ± 0.01 %ID/g
In vivo; Pancreas uptake
  tissue uptake at 0.5 h: 0.42 ± 0.17 %ID/g
  tissue uptake at 2 h: 0.13 ± 0.03 %ID/g
  tissue uptake at 24 h: 0.09 ± 0.01 %ID/g
  tissue uptake at 48 h: 0.05 ± 0.01 %ID/g
In vivo; Spleen uptake
  tissue uptake at 0.5 h: 1.7 ± 0.62 %ID/g
  tissue uptake at 24 h: 0.58 ± 0.09 %ID/g
  tissue uptake at 48 h: 0.46 ± 0.1 %ID/g
In vivo; Stomach uptake
  tissue uptake at 0.5 h: 2.17 ± 0.49 %ID/g
  tissue uptake at 24 h: 0.21 ± 0.01 %ID/g
  tissue uptake at 48 h: 0.14 ± 0.02 %ID/g
In vivo; Tumor uptake
  tissue uptake at 0.5 h: 5.74 ± 1.6 %ID/g
  tissue uptake at 24 h: 1.29 ± 0.02 %ID/g
  tissue uptake at 48 h: 0.76 ± 0.17 %ID/g
In vivo; Tumor-to-blood ratio
  tissue to tissue ratio at 0.5 h: 8.9 ± 3.09
  tissue to tissue ratio at 2 h: 25.8 ± 10.5
  tissue to tissue ratio at 24 h: 128 ± 30.5
  tissue to tissue ratio at 48 h: 144 ± 36.3
In vivo; Tumor-to-muscle ratio
  tissue to tissue ratio at 0.5 h: 20.6 ± 6.4
  tissue to tissue ratio at 24 h: 37.7 ± 9.81
  tissue to tissue ratio at 48 h: 41.1 ± 8.62
[1]
  Intestine uptake: 0.60 ± 0.13 %ID/g
  Liver uptake: 0.43 ± 0.16 %ID/g
  Lung uptake: 0.86 ± 0.20 %ID/g
  Spleen uptake: 0.88 ± 0.21 %ID/g
  Tumor uptake: 2.35 ± 0.36 %ID/g
  Tumor-to-muscle ratio: 39.83 ± 9.16
In vitro
  remaining at 2 h, 1.85 MBq/mL: > 95%

## CC(C)C[C@@H]1NC(=O)[C@@H]2CSSC[C@@H]3NC(=O)[C@H]([C@@H](C)O)NC(=O)[C@H](C)NC(=O)[C@H](C)NC(=O)[C@@H]4CCCN4C(=O)[C@H](CC(=O)O)NC(=O)[C@H](CSSC[C@H](NC(=O)CNC(=O)CN4CCN(CC(=O)O)CCN(CC(=O)O)CCN(CC(=O)O)CC4)C(=O)N[C@@H](C(C)C)C(=O)N[C@@H](CCCNC(=N)N)C(=O)N[C@@H](CC(C)C)C(=O)N[C@@H](Cc4c[nH]cn4)C(=O)N[C@@H](CCC(=O)O)C(=O)N[C@@H](CO)C(=O)N2)NC(=O)[C@H](CSSC[C@@H](C(=O)N[C@@H](CCCNC(=N)N)C(=O)O)NC(=O)[C@H](Cc2ccc(O)cc2)NC(=O)[C@@H]2CSSC[C@H](NC(=O)[C@H](Cc4ccc(O)cc4)NC3=O)C(=O)N[C@@H](C(C)C)C(=O)N[C@@H](CCC(=O)O)C(=O)N[C@@H](CCCNC(=N)N)C(=O)NCC(=O)N[C@@H](CC(=O)O)C(=O)NCC(=O)N[C@@H](CC(N)=O)C(=O)N[C@@H](CCCNC(=N)N)C(=O)N[C@@H](CCCNC(=N)N)C(=O)N2)NC(=O)[C@@H]2CCCN2C(=O)[C@H](C(C)C)NC(=O)[C@H](CCC(N)=O)NC(=O)[C@H](CCC(N)=O)NC(=O)CNC1=O [111In-DOTA-AgRP-6E, metal not drawn] ({DOTA}-GCVRLHESCLGQQVPCCDPAATCYCVERGDGNRRCYCR-OH; disulfide 2-17, 9-23, 16-37, 25-35)
In vivo; Blood uptake
  tissue uptake at 0.5 h: 1.27 ± 0.53 %ID/g
  tissue uptake at 2 h: 0.06 ± 0.05 %ID/g
  tissue uptake at 24 h: 0.01 %ID/g
In vivo; Bone uptake
  tissue uptake at 0.5 h: 1.18 ± 0.15 %ID/g
  tissue uptake at 2 h: 0.56 ± 0.1 %ID/g
  tissue uptake at 24 h: 0.36 ± 0.04 %ID/g
In vivo; Brain uptake
  tissue uptake at 0.5 h: 0.06 ± 0.01 %ID/g
  tissue uptake at 2 h: 0.02 ± 0.01 %ID/g
  tissue uptake at 24 h: 0.02 ± 0.01 %ID/g
In vivo; Heart uptake
  tissue uptake at 0.5 h: 0.8 ± 0.24 %ID/g
  tissue uptake at 2 h: 0.18 ± 0.06 %ID/g
  tissue uptake at 24 h: 0.12 ± 0.02 %ID/g
In vivo; Intestine uptake
  tissue uptake at 0.5 h: 2.04 ± 0.54 %ID/g
  tissue uptake at 2 h: 1.13 ± 0.14 %ID/g
  tissue uptake at 24 h: 0.93 ± 0.04 %ID/g
In vivo; Kidneys uptake
  tissue uptake at 0.5 h: 15.4 ± 3.19 %ID/g
  tissue uptake at 2 h: 14.7 ± 1.98 %ID/g
  tissue uptake at 24 h: 6.87 ± 1.19 %ID/g
In vivo; Liver uptake
  tissue uptake at 0.5 h: 0.87 ± 0.2 %ID/g
  tissue uptake at 2 h: 0.52 ± 0.01 %ID/g
  tissue uptake at 24 h: 0.48 ± 0.02 %ID/g
In vivo; Lung uptake
  tissue uptake at 0.5 h: 1.86 ± 0.56 %ID/g
  tissue uptake at 2 h: 0.54 ± 0.12 %ID/g
  tissue uptake at 24 h: 0.27 ± 0.02 %ID/g
In vivo; Muscle uptake
  tissue uptake at 0.5 h: 0.64 ± 0.09 %ID/g
  tissue uptake at 2 h: 0.15 ± 0.07 %ID/g
  tissue uptake at 24 h: 0.07 ± 0.01 %ID/g
In vivo; Pancreas uptake
  tissue uptake at 0.5 h: 0.57 ± 0.23 %ID/g
  tissue uptake at 2 h: 0.2 ± 0.06 %ID/g
  tissue uptake at 24 h: 0.14 ± 0.01 %ID/g
In vivo; Spleen uptake
  tissue uptake at 0.5 h: 1.36 ± 0.26 %ID/g
  tissue uptake at 2 h: 0.83 ± 0.05 %ID/g
  tissue uptake at 24 h: 0.65 ± 0.06 %ID/g
In vivo; Stomach uptake
  tissue uptake at 0.5 h: 2.02 ± 0.47 %ID/g
  tissue uptake at 2 h: 0.87 ± 0.14 %ID/g
  tissue uptake at 24 h: 0.53 ± 0.02 %ID/g
In vivo; Tumor uptake
  tissue uptake at 0.5 h: 1.76 ± 0.34 %ID/g
  tissue uptake at 2 h: 1.21 ± 0.21 %ID/g
  tissue uptake at 24 h: 0.89 ± 0.06 %ID/g
In vivo; Tumor-to-blood ratio
  tissue to tissue ratio at 0.5 h: 1.71 ± 1.21
  tissue to tissue ratio at 2 h: 33 ± 23.3
  tissue to tissue ratio at 24 h: 142 ± 3.39
In vivo; Tumor-to-muscle ratio
  tissue to tissue ratio at 0.5 h: 2.75 ± 0.28
  tissue to tissue ratio at 2 h: 9.2 ± 3.88
  tissue to tissue ratio at 24 h: 13.1 ± 1.94
In vitro
  remaining at 2 h, 1.85 MBq/mL: > 95%
